Series [1] deals with the molecule itself. As to the kind of experiment: native gel or EMSA; endpoint polymerisation: 0.1 mg/ml heated for 4 h (55°C, or 45-63°C) without antibody during heating; bis-Tris non-denaturing PAGE, Coomassie; polymerisation read as loss of the monomer band. A general note: Mobility shift assays separate free from complexed probe on a gel.
The target in series [2] is T1, α1-antitrypsin, plasma-derived wild-type (M) (UniProt P01009 25-418).
T1 construct: alpha1-antitrypsin, wild-type 'M' allele, plasma-derived; also called α1-AT; α1-ATWT; source: plasma-derived
In words: progress curves of intrinsic protein fluorescence (peptide incorporation) + native gel or EMSA; as a5, in the presence of mAb4B12. The note with it: both partners purified.

Series [3] has as its target α1-antitrypsin, plasma-derived wild-type (M) (UniProt P01009). Described as above.

B1: α1-AT_(79-306), disulphide variant Gly79Cys/Leu306Cys (natural protein, UniProt P01009 25-418, looked up)
chain: EDPQGDAAQKTDTSHHDQDHPTFNKITPNLAEFAFSLYRQLAHQSNSTNIFFSPVSIATAFAMLSLGTKADTHDEILECLNFNLTEIPEAQIHEGFQELLRTLNQPDSQLQLTTGNGLFLSEGLKLVDKFLEDVKKLYHSEAFTVNFGDTEEAKKQINDYVEKGTQGKIVDLVKELDRDTVFALVNYIFFKGKWERPFEVKDTEEEDFHVDQVTTVKVPMMKRLGMFNIQHSKKLSSWVLLMKYLGNATAIFFLPDEGKLQHLENELTHDIITKFLENEDRRSASLHLPKLSITGTYDLKSVLGQCGITKVFSNGADLSGVTEEAPLKLSKAVHKAVLTIDEKGTEAAGAMFLEAIPMSIPPEVKFNKPFVFLMIEQNTKSPLFMGKVVNPTQK
modifications: disulphide 79-306 present in ~90% of molecules
notes: alpha1-antitrypsin, 'M' allele, engineered disulphide between helix C and the C-terminus of helix I, on the Cys232Ser background; also called 79-306 double mutant; source: E. coli XL-1 blue, pQE-30-based plasmid, purified
Take B1: the binding result in series [1] is “binds”.

B2: 11-mer RCL peptide Ac-SEAAASTAVVI-NH2 (peptide)
peptide: Ac-SEAAASTAVVI-NH2
notes: model peptide corresponding with the reactive centre loop (RCL) of anti-thrombin; source: synthetic peptide
Regarding B2, the “fold increase in the rate of peptide incorporation with mAb4B12 against the non-antibody-bound control” value in series [2] turned out to be 2.5 fold. Ac-FLAA-NH2 [4-mer peptide Ac-FLAA-NH2]: the fold increase in the rate of peptide incorporation with mAb4B12 against the non-antibody-bound control in series [3] is 1.8 fold.

The values are drawn from paper PMC5264506, “An antibody that prevents serpin polymerisation acts by inducing a novel allosteric behaviour” (Biochemical Journal, 2016).
